Measurements published in patent US20070286858A1.

Target: murine RAGE-Fc (mouse) (UniProt Q62151)
Assay: method not given

Chain of murine RAGE-Fc (mouse) (Q62151 other isoform, or with tags, fused parts or gaps, form in doubt): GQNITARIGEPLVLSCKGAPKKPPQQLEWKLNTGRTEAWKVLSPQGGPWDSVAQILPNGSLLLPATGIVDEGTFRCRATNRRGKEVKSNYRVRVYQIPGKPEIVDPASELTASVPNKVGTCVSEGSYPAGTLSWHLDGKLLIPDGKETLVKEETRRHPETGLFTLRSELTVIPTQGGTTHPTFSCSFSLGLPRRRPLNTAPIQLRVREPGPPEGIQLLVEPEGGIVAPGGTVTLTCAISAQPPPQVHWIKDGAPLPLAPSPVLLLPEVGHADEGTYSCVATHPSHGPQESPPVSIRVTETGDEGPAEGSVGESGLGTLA

B1: XT-M4 (antibody, rat IgG2b, V domains shown)
VH: EVQLVESGGGLVQPGRSLKLSCVVSGFTFNNYWMTWIRQTPGKGLEWVASINNSGDNTYYPDSVKDRFTISRDNAKSTLYLQMNSLRSEDTATYYCTRGGDITTGFDYWGQGVMVTVSS
VL: DIQMTQSPSSMSVSLGDTITITCRASQDVGIYVNWFQQKPGKSPRRMIYRATNLADGVPSRFSGSRSGSIYSLTISSLESEDVADYHCLEFDEHPLTFGSGTKVEIK
  Kd: 0.3 nM
